These results are taken from paper PMC8131915 (The Journal of Biological Chemistry, 2021).

The target of data set [1] is transcription-associated protein 1 (Tra1) (S. cerevisiae (endogenous), UniProt P38811 1-3744). The data set is described as follows: cross-linking.
Data set [2] concerns the target SAGA complex (Spt7-TAP purified) (Saccharomyces cerevisiae, UniProt P35177;P38915;P38811;P50875;P06844;Q12060;P38129;P53040;Q05027;Q12030;Q03761;Q03 …). The data set is described as follows: fluorescence polarization. Background: Fluorescence polarisation rises when a labelled molecule tumbles more slowly, as on binding a larger partner.
Data set [3] has as its target SAGA complex (Spt7-TAP purified);TBP (Saccharomyces cerevisiae;Saccharomyces …, UniProt P35177;P38915;P38811;P50875;P06844;Q12060;P38129;P53040;Q05027;Q12030;Q03761;Q03 …, |). Description: EMSA. A general note: In EMSA bound probe runs differently from free probe, usually more slowly.

Sequence of transcription-associated protein 1 (Tra1) (P38811 whole entry): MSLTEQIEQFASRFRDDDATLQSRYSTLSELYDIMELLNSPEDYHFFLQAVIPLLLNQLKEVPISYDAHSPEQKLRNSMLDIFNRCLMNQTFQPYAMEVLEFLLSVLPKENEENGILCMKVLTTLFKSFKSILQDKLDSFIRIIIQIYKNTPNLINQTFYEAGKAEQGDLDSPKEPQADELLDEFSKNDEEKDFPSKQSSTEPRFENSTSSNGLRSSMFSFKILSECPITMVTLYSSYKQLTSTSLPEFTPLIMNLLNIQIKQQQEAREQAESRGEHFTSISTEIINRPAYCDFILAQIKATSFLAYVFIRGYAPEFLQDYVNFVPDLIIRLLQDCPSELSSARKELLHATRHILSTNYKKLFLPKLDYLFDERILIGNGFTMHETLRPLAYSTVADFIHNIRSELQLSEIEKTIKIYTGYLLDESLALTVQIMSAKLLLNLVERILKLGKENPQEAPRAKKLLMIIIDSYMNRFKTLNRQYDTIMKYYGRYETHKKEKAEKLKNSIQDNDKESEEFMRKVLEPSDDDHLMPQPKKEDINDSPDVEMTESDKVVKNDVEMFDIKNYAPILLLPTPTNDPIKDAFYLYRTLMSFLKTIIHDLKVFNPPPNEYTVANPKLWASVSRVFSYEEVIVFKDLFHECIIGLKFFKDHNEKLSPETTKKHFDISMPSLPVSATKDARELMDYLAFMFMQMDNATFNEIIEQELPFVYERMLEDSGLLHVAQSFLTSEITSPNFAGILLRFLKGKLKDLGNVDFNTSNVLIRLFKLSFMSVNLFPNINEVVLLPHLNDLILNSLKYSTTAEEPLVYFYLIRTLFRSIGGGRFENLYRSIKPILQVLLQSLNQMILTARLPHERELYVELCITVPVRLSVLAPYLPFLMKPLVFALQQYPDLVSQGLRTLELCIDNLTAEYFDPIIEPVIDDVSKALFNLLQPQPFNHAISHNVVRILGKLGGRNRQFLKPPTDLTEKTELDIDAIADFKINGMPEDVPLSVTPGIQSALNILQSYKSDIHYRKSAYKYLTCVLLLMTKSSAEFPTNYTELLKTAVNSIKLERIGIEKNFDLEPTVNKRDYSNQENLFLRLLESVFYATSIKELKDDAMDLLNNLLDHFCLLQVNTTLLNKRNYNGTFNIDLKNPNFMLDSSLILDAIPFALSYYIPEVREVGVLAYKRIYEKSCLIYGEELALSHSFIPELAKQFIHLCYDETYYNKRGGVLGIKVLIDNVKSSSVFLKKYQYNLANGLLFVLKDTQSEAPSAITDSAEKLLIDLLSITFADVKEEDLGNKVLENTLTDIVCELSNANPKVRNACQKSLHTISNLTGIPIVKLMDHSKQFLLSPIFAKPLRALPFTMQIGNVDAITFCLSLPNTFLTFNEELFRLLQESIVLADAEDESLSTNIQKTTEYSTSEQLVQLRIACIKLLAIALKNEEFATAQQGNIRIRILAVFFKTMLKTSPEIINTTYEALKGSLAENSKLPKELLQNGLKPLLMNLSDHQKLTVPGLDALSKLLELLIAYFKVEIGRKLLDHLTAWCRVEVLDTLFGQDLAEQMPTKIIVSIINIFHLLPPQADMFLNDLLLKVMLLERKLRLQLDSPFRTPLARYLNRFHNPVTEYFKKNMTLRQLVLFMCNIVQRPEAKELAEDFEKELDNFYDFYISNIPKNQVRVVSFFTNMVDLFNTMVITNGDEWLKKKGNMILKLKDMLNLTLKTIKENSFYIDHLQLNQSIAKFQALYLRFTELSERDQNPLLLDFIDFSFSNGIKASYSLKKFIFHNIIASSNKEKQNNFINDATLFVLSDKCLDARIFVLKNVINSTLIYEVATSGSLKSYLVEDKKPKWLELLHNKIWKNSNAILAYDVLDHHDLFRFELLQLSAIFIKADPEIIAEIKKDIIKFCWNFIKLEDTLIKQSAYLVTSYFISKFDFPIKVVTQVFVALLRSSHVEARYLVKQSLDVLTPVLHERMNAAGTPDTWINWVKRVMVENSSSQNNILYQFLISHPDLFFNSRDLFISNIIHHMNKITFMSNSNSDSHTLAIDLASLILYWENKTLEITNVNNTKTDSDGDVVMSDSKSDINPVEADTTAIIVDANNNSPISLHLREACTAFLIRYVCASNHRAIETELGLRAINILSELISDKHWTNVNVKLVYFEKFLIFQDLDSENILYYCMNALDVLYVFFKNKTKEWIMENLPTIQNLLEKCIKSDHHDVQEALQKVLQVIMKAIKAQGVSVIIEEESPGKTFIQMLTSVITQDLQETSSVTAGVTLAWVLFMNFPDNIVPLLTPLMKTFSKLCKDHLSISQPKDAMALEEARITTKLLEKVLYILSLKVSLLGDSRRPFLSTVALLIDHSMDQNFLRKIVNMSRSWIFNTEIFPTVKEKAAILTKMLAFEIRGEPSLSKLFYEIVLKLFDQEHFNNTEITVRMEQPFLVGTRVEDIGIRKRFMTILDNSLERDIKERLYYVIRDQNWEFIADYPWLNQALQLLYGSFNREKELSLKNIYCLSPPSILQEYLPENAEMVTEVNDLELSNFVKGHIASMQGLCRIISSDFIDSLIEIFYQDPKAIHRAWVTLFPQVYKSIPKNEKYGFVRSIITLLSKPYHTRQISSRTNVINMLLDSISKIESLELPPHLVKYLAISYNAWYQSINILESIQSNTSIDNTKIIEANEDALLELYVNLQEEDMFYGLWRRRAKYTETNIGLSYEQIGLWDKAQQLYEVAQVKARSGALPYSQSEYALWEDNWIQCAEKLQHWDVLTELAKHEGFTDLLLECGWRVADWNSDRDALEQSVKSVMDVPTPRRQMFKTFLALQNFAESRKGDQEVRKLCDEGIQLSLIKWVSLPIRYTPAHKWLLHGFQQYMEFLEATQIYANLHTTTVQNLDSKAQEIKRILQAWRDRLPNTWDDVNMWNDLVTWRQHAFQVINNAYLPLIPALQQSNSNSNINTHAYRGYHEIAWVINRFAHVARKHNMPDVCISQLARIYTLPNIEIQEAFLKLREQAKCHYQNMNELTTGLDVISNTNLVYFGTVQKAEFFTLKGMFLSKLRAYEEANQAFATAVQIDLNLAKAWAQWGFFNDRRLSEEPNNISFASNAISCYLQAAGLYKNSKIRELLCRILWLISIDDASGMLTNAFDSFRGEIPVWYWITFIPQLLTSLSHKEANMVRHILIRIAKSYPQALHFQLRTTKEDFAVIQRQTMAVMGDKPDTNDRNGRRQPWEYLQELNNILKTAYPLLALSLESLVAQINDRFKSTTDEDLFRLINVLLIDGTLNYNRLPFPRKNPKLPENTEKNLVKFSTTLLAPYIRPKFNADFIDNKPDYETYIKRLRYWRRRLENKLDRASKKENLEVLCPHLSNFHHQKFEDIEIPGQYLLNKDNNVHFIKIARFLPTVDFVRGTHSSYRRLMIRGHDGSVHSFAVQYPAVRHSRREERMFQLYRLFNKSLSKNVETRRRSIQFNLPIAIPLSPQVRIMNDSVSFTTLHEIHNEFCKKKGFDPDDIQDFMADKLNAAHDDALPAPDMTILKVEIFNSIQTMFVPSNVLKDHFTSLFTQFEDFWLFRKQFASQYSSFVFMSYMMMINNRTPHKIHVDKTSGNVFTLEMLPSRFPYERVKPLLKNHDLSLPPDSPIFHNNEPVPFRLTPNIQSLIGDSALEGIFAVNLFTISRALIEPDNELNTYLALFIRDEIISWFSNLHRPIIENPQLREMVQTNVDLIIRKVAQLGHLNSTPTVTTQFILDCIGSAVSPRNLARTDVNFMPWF

B1: Ada1 (natural protein, S. cerevisiae (endogenous), UniProt Q12060 1-488, looked up)
chain: MSAIQSPAPKPLQPTYPAASPASTNAYMKPGLIGSPAVSNHTEPNNGNNETAEPQGPNQRIDLGAMIEELTSLLGKESWTKYAQIISLFILGKLSRKELSNELELVFSPSAASLEKSNTNHHHSLVRLHNQLLLGIFANSLRENPLGRNGNESSWGFGNGSNNPNNKLKRINKHNSQIEVYKKIVMSLPLNDRNRLKMITKEAGKRGFIFCSVFQARLNNIPKIPIVTNPESLKRVKSNNLKTPLEWSQDIMNGFNVPLASESHSLPDTDSFYLRMVGIAREHGLVGTVDARCVELISLALDQYLKNIIEFTIDTVRYRRKKYSDYYDLNESGLYKSVSEMAADKRDAKIKQLDDDKNEDECADEAKSINNGNNSSKDDIGDISMSSITKAGEAVNEELHENRTISLTNEDIYDSLSIFPNLVEPSGSYYALTNLGLVNDDELVDMKSNIDDLPDFLNEKPTFTPLDERNVGTRHELNWLIKGILTED
With B1, the binding result in data set [1] is “binds”.

B2: Taf12 (natural protein, S. cerevisiae (endogenous), UniProt Q03761 1-539, looked up)
chain: MSSNPENSGVNANNNTGTGNADAITGAQQNMVLQPRQLQEMAAKFRTLLTEARNVGETTPRGKELMFQAAKIKQVYDALTLNRRRQQAAQAYNNTSNSNSSNPASIPTENVPNSSQQQQQQQQQTRNNSNKFSNMIKQVLTPEENQEYEKLWQNFQVRHTSIKEKETYLKQNIDRLEQEINKQTDEGPKQQLQEKKIELLNDWKVLKIEYTKLFNNYQNSKKTFYVECARHNPALHKFLQESTQQQRVQQQRVQQQQQQQQQQQQQQQQQQQQQQQRQGQNQRKISSSNSTEIPSVTGPDALKSQQQQQNTITATNNPRGNVNTSQTEQSKAKVTNVNATASMLNNISSSKSAIFKQTEPAIPISENISTKTPAPVAYRSNRPTITGGSAMNASALNTPATTKLPPYEMDTQRVMSKRKLRELVKTVGIDEGDGETVIDGDVEELLLDLADDFVTNVTAFSCRLAKHRKSDNLEARDIQLHLERNWNIRIPGYSADEIRSTRKWNPSQNYNQKLQSITSDKVAAAKNNGNNVASLNTKK
For B2, the binding result in data set [1] was “binds”.

B3: 75-mer ssDNA, HIS4 promoter (ssDNA)
DNA: GCAGGAGGACGTAGGGTAGGACTATGAACAGTAGTATACTGTGTATATAATAGATATGGAACGTTATATTCACCT
As usually defined, the Kd is the free concentration of one partner at which half of the binding sites on the other are occupied at equilibrium, for simple one-to-one binding. Read a low Kd as higher affinity. In turn, B3 gave a Kd in data set [2] of 15 ± 11 nM.

B4: 75-mer dsDNA, HIS4 TATA-box promoter (dsDNA)
DNA 1: GCAGGAGGACGTAGGGTAGGACTATGAACAGTAGTATACTGTGTATATAATAGATATGGAACGTTATATTCACCT
DNA 2: AGGTGAATATAACGTTCCATATCTATTATATACACAGTATACTACTGTTCATAGTCCTACCCTACGTCCTCCTGC
Regarding B4, the binding result in data set [3] is given as “binds”.
